Results reported in patent publication US7528106B2, “Compositions and methods for treatment of neovascular diseases” (The Scripps Research Institute, priority 2004, dated 2009).

Test system: deep retinal vascular network formation in neonatal Balb/C mice
Assay: Neonatal mouse retinal angiogenesis model
Type: in vivo
Settings: for % of eyes with 0-10% inhibition of deep vascular layer / % of eyes with 10-25% inhibition of deep vascular layer / % of eyes with 25-50% inhibition of deep vascular layer / % of eyes with 50-75% inhibition of deep vascular layer / % of eyes with 75-100% inhibition of deep vascular layer / % of eyes with 100% inhibition of deep vascular layer / % of eyes with >95% inhibition of deep vascular layer: intravitreal P4, read P12
Text: Description of the Model. Immediately after birth (postnatal day zero; “P0”), retinal vasculature is virtually absent in the mouse. By four weeks after birth (P28) the retina has attained an adult pattern of retinal vessels coincident with the onset of vision. Physiological neovascularization of the retina occurs during this period via a stereotypical, biphasic developmental pattern of angiogenesis. During the primary phase of retinal vascular development, spoke-like peripapillary vessels grow radially from the central retinal artery and vein, becoming progressively interconnected by a capillary plexus that forms between them. This “inner retinal plexus” grows in area, volume and complexity, centrifugally, as a monolayer within the nerve fiber layer during the first seven to ten days following birth.
The second phase of retinal vessel formation begins between postnatal days 7 (P7) and 10 (P10) when collateral branches sprout from capillaries of the superficial plexus and penetrate into the retina where their tips branch and anastamose laterally to form a planar “deep vascular plexus”. While the deep vascular plexus is in place by P14, it undergoes extensive remodeling from P14 to P21. It is of interest to note that the formation of these vascular networks in the neonatal mouse are strikingly similar to the events occurring in the third trimester human fetus.
Advantages and Quantification of the Model. The reproducibility of the murine retinal development process and its easy accessibility in neonatal animals provide an opportunity to assess the efficacy of antiangiogenic compounds in a physiologically relevant model of angiogenesis. Additional advantages of the neonatal mouse model are the ability to qualitatively and quantitatively evaluate the angiostatic effect of putative antagonists of angiogenesis. Angiostatic activity was evaluated based upon the degree of angiogenesis in the deep, outer retinal vascular layer (secondary layer) that develops between P8 and P12. The appearance of the inner blood vessel network (primary layer) was evaluated for normal development and signs of toxicity.
Preparation of Compositions. Peptidomimetic integrin signaling inhibitor Compound (1) is solubilized in PBS at a concentration of about 20 mg/ml in PBS (1× concentration). T2-TrpRS is solubilized in PBS at a concentration of about 0.5 mg/ml (1× concentration). VEGF aptamer (pegaptanib sodium; Compound (2)) is solubilized in PBS at a concentration of about 2 mg/ml (1× concentration) to achieve an injection of approximately 1 μg/eye at 1× concentration. For all combination assays the compounds were prepared at 2 or 3 times the 1× concentration of each material and then combined to produce a final solution containing each individual compound at the same concentration as was used alone (e.g., 1×, 0.5×, 0.25× or 0.1×, as the case may be). For all assays, a single injection of 0.5 μl of PBS solutions of the drugs was administered intravitreally regardless of the number of compounds being injected. As used herein, the term “0.1×” refers to one tenth of the 1× concentration of a given material, “0.25×” refers to one quarter of the 1× concentration of a given material, “0.5×” refers to one half of the 1× concentration of a given material, and so forth for similar designations.
An in vivo angiogenesis assay in the neonatal mouse (Balb/C, The Jackson Laboratory, Bar Harbor, Me.) was used to evaluate the angiostatic activity of integrin signaling inhibitor Compound (1), T2-TrpRS, and VEGF aptamer Compound (2). Intravitreous injection and retina isolation was performed with a dissecting microscope (SMZ 645, Nikon, Japan). […] The samples (0.5 μl) were injected with a Hamilton syringe fitted with a 32-gauge needle (Hamilton Company, Reno, Nev.). The injection was made between the equator and the corneal limbus. During injection, the location of the needle tip was monitored by direct visualization to determine that it was in the vitreal cavity. […]

[1] = Ex 2, 0.1× of each (1×: T2-TrpRS 0.5, Comp. (2) 2 mg/ml)
[2] = Ex 3, 1× of each (T2-TrpRS 0.5, Comp. (2) 2 mg/ml)
[3] = Ex 6, 1× of each (T2-TrpRS 0.5, Comp. (2) 2 mg/ml)
[4] = Ex 7, 1× (T2-TrpRS 0.5, Comp. (2) 2 mg/ml)
[5] = Ex 9, 1× of each (Comp. (1) 20, Comp. (2) 2, T2-TrpRS 0.5 mg/ml)

B1: T2-TrpRS: 43 kDa angiostatic T2 fragment of human tryptophanyl-tRNA synthetase, SEQ ID NO: 1 (protein)
chain: MSAKGIDYDKLIVRFGSSKIDKELINRIERATGQRPHHFLRRGIFFSHRDMNQVLDAYENKKPFYLYTGRGPSSEAMHVGHLIPFIFTKWLQDVFNVPLVIQMTDDEKYLWKDLTLDQAYSYAVENAKDIIACGFDINKTFIFSDLDYMGMSSGFYKNVVKIQKHVTFNQVKGIFGFTDSDCIGKISFPAIQAAPSFSNSFPQIFRDRTDIQCLIPCAIDQDPYFRMTRDVAPRIGYPKPALLHSTFFPALQGAQTKMSASDPNSSIFLTDTAKQIKTKVNKHAFSGGRDTIEEHRQFGGNCDVDVSFMYLTFFLEDDDKLEQIRKDYTSGAMLTGELKKALIEVLQPLIAEHQARRKEVTDEIVKEFMTPRKLSFDFQ
modifications: homo sapiens
inhibition of neovascularization (0.1× concentrations (1 μg/eye integrin antagonist, 0.2 μg/eye VEGF aptamer, 0.025 μg/eye T2-TrpRS)): negligible
% of eyes with 0-10% inhibition of deep vascular layer [1]: 50%
% of eyes with 10-25% inhibition of deep vascular layer [1]: 37.5%
% of eyes with 25-50% inhibition of deep vascular layer [1]: 12.5%
% of eyes with 50-75% inhibition of deep vascular layer [1]: 0%
% of eyes with 75-100% inhibition of deep vascular layer [1]: 0%
% of eyes with 100% inhibition of deep vascular layer [1]: 0%
% of eyes with >95% inhibition of deep vascular layer [1]: 0%
% of eyes with 0-10% inhibition of deep vascular layer [2]: 12.5%
% of eyes with 10-25% inhibition of deep vascular layer [2]: 12.5%
% of eyes with 25-50% inhibition of deep vascular layer [2]: 0%
% of eyes with 50-75% inhibition of deep vascular layer [2]: 12.5%
% of eyes with 75-100% inhibition of deep vascular layer [2]: 62.5%
% of eyes with 100% inhibition of deep vascular layer [2]: 12.5%
% of eyes with >95% inhibition of deep vascular layer [2]: 12.5%
% of eyes with 0-10% inhibition of deep vascular layer (Ex 4, 1× (0.5 mg/ml)): 12.5%
% of eyes with 10-25% inhibition of deep vascular layer (Ex 4, 1× (0.5 mg/ml)): 37.5%
% of eyes with 25-50% inhibition of deep vascular layer (Ex 4, 1× (0.5 mg/ml)): 12.5%
% of eyes with 50-75% inhibition of deep vascular layer (Ex 4, 1× (0.5 mg/ml)): 12.5%
% of eyes with 75-100% inhibition of deep vascular layer (Ex 4, 1× (0.5 mg/ml)): 25%
% of eyes with 100% inhibition of deep vascular layer (Ex 4, 1× (0.5 mg/ml)): 0%
% of eyes with >95% inhibition of deep vascular layer (Ex 4, 1× (0.5 mg/ml)): 0%
% of eyes with 0-10% inhibition of deep vascular layer (Ex 5, 1× (0.5 mg/ml)): 33.3%
% of eyes with 10-25% inhibition of deep vascular layer (Ex 5, 1× (0.5 mg/ml)): 16.7%
% of eyes with 25-50% inhibition of deep vascular layer (Ex 5, 1× (0.5 mg/ml)): 33.3%
% of eyes with 50-75% inhibition of deep vascular layer (Ex 5, 1× (0.5 mg/ml)): 0%
% of eyes with 75-100% inhibition of deep vascular layer (Ex 5, 1× (0.5 mg/ml)): 16.7%
% of eyes with 100% inhibition of deep vascular layer (Ex 5, 1× (0.5 mg/ml)): 0%
% of eyes with >95% inhibition of deep vascular layer (Ex 5, 1× (0.5 mg/ml)): 16.7%
% of eyes with 0-10% inhibition of deep vascular layer [3]: 50%
% of eyes with 10-25% inhibition of deep vascular layer [3]: 25%
% of eyes with 25-50% inhibition of deep vascular layer [3]: 12.5%
% of eyes with 50-75% inhibition of deep vascular layer [3]: 12.5%
% of eyes with 75-100% inhibition of deep vascular layer [3]: 0%
% of eyes with 100% inhibition of deep vascular layer [3]: 0%
% of eyes with >95% inhibition of deep vascular layer [3]: 0%
% of eyes with 0-10% inhibition of deep vascular layer [4]: 25%
% of eyes with 10-25% inhibition of deep vascular layer [4]: 12.5%
% of eyes with 25-50% inhibition of deep vascular layer [4]: 12.5%
% of eyes with 50-75% inhibition of deep vascular layer [4]: 0%
% of eyes with 75-100% inhibition of deep vascular layer [4]: 50%
% of eyes with 100% inhibition of deep vascular layer [4]: 0%
% of eyes with >95% inhibition of deep vascular layer [4]: 12.5%
% of eyes with 0-10% inhibition of deep vascular layer (Ex 8, 1× (0.5 mg/ml)): 30%
% of eyes with 10-25% inhibition of deep vascular layer (Ex 8, 1× (0.5 mg/ml)): 30%
% of eyes with 25-50% inhibition of deep vascular layer (Ex 8, 1× (0.5 mg/ml)): 20%
% of eyes with 50-75% inhibition of deep vascular layer (Ex 8, 1× (0.5 mg/ml)): 10%
% of eyes with 75-100% inhibition of deep vascular layer (Ex 8, 1× (0.5 mg/ml)): 10%
% of eyes with 100% inhibition of deep vascular layer (Ex 8, 1× (0.5 mg/ml)): 0%
% of eyes with >95% inhibition of deep vascular layer (Ex 8, 1× (0.5 mg/ml)): 0%
% of eyes with 0-10% inhibition of deep vascular layer [5]: 12.5%
% of eyes with 10-25% inhibition of deep vascular layer [5]: 0%
% of eyes with 25-50% inhibition of deep vascular layer [5]: 25%
% of eyes with 50-75% inhibition of deep vascular layer [5]: 12.5%
% of eyes with 75-100% inhibition of deep vascular layer [5]: 50%
% of eyes with 100% inhibition of deep vascular layer [5]: 0%
% of eyes with >95% inhibition of deep vascular layer [5]: 12.5%
% of eyes with 0-10% inhibition of deep vascular layer (Ex 10, 0.1× (1×=0.5 mg/ml)): 75%
% of eyes with 10-25% inhibition of deep vascular layer (Ex 10, 0.1× (1×=0.5 mg/ml)): 25%
% of eyes with 25-50% inhibition of deep vascular layer (Ex 10, 0.1× (1×=0.5 mg/ml)): 0%
% of eyes with 50-75% inhibition of deep vascular layer (Ex 10, 0.1× (1×=0.5 mg/ml)): 0%
% of eyes with 75-100% inhibition of deep vascular layer (Ex 10, 0.1× (1×=0.5 mg/ml)): 0%
% of eyes with 0-10% inhibition of deep vascular layer (Ex 10, 0.3× (1×=0.5 mg/ml)): 33.3%
% of eyes with 10-25% inhibition of deep vascular layer (Ex 10, 0.3× (1×=0.5 mg/ml)): 16.7%
% of eyes with 25-50% inhibition of deep vascular layer (Ex 10, 0.3× (1×=0.5 mg/ml)): 8.3%
% of eyes with 50-75% inhibition of deep vascular layer (Ex 10, 0.3× (1×=0.5 mg/ml)): 16.7%
